# Patent publication US20170023548
# T1: hATP11C-GFP (human ATP11C tagged with GFP at the C-terminus), Q8NB49
# T1 chain: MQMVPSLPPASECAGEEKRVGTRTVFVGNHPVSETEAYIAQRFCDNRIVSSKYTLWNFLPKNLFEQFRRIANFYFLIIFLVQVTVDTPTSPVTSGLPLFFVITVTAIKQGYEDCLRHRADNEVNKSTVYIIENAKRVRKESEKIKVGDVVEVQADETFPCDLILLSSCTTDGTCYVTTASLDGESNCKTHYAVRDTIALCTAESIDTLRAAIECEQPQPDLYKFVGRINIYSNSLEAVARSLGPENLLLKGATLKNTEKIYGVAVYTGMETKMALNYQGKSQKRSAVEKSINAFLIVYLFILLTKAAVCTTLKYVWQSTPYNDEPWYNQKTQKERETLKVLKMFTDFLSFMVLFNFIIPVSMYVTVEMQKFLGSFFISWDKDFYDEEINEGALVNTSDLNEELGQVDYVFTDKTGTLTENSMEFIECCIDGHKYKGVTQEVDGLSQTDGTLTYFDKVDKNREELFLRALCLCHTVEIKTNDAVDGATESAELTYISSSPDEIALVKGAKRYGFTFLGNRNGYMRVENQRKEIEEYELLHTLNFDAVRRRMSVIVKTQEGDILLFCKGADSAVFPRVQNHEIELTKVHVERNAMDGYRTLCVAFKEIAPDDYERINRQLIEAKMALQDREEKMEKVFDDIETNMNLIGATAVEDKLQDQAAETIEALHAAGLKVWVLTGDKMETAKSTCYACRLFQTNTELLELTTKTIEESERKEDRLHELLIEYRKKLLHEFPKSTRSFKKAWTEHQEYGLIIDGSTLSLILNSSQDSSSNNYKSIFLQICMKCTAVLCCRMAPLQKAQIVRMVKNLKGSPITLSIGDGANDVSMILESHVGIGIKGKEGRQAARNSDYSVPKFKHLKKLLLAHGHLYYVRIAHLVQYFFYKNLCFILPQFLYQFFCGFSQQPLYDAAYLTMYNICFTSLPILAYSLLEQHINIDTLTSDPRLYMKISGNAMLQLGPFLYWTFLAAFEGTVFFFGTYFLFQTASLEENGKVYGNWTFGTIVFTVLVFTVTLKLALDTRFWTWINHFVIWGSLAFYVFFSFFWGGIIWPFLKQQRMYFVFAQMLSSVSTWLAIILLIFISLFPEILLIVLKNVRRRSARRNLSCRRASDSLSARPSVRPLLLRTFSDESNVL
# Target: T1, hATP11C-GFP (human ATP11C tagged with …)
row,Protein,"cleavage of hATP11C-GFP in solubilized membrane fraction, Western blotting with anti-GFP"
1,recombinant human caspase-3 (Biovision) (protein) SGISLDNSYKMDYPEMGLCIIINNKNFHKSTGMTSRSGTDVDAANLRETFRNLKYEVRNKNDLTREEIVELMRDVSKEDHSKRSSFVCVLLSHGEEGIIFGTNGPVDLKKITNFFRGDRCRSLTGKPKLFIIQACRGTELDCGIETDSGVDDDMACHKIPVEADFLYAYSTAPGYYSWRNSKDGSWFIQSLCAMLKQYADKLEFMHILTRVNRKVATEFESFSFDATFHAKKQIPCIVSMLTKELYFYH,"hATP11C was cleaved by caspase-3, -6 and -7"
2,recombinant human caspase-6 (Biovision) (protein) AFYKREMFDPAEKYKMDHRRRGIALIFNHERFFWHLTLPERRGTCADRDNLTRRFSDLGFEVKCFNDLKAEELLLKIHEVSTVSHADADCFVCVFLSHGEGNHIYAYDAKIEIQTLTGLFKGDKCHSLVGKPKIFIIQACRGNQHDVPVIPLDVVDNQTEKLDTNITEVDAASVYTLPAGADFLMCYSVAEGYYSHRETVNGSWYIQDLCEMLGKYGSSLEFTELLTLVNRKVSQRRVDFCKDPSAIGKKQVPCFASMLTKKLHFFPKSN,"hATP11C was cleaved by caspase-3, -6 and -7"
3,recombinant human caspase-7 (Biovision) (protein) AKPDRSSFVPSLFSKKKKNVTMRSIKTTRDRVPTYQYNMNFEKLGKCIIINNKNFDKVTGMGVRNGTDKDAEALFKCFRSLGFDVIVYNDCSCAKMQDLLKKASEEDHTNAACFACILLSHGEENVIYGKDGVTPIKDLTAHFRGDRCKTLLEKPKLFFIQACRGTELDDGIQADSGPINDTDANPRYKIPVEADFLFAYSTVPGYYSWRSPGRGSWFVQALCSILEEHGKDLEIMQILTRVNDRVARHFESQSDDPHFHEKKQIPCVVSMLTKELYFSQ,"hATP11C was cleaved by caspase-3, -6 and -7"
